Experimental data reported in patent US20190233521A1 (GENEFRONTIER, published 2019).
Numbering of substitutions follows the chain as printed.

B1: 234-61 IgG antibody (IgG4) (antibody, V domains shown)
VH: QVQPGGSLRLSCAASGFTFSNFVMHWVRQAPGKGLEWVSSISGSSSSTYYADSVKGRFTISRDNSKNTLYLQMNSLRAEDTAVYYCARYYYASFDYWGQGTLVTVSS
VL: DIELTQPPSVSVAPGQTARISCSGDSLGSKYVYWYQQKPGQAPVVVIYGDSKRPSGIPERFSGSNSGNTATLTISGTQAEDEADYYCQSYTSFTTKIVFGGGTKLTVLG
B2: 160-c76 IgG antibody (IgG4) (antibody, V domains shown)
VH: B1 VH
VL: DIELTQPPSVSVAPGQTARISCSGDSLGSKYVYWYQQKPGQAPVVVIYGDSKRPSGIPERFSGSNSGNTATLTISGTQAEDEADYYCQSYDSNIMVFGGGTKLTVLG
notes: Full IgG made in HEK293T
B3: 234-83 IgG antibody (IgG4) (antibody, V domains shown)
VH: B1 VH
VL: B1 VL with Q88G, S92T, F93G, T94A, T95K, K96S, I97H
notes: HRP-labelled in the peptide array
B4: 160-c7 IgG antibody (IgG4) (antibody, V domains shown)
VH: QVQLVQSGAEVKKPGASVKVSCKASGYTFTSYDMHWVRQAPGQGLEWMGWINPYSGNTNYAQKFQGRVTMTRDTSISTAYMELSSLRSEDTAVYYCARMYYDKDYLSWGTDSWGQGTLVTVSS
VL: DIQMTQSPSSLSASVGDRVTITCRASQDISSYLNWYQQKPGKAPKLLIYGASNLQSGVPSRFSGSGSGTDFTLTISSLQPEDFAVYYCQQYSDYPHTFGQGTKVEIKR
notes: Full IgG made in HEK293T; HRP-labelled in the peptide array
B5: 160-c103 IgG antibody (IgG4) (antibody, V domains shown)
VH: QVQLVESGGGLVQPGGSLRLSCAASGFTFSNYYMSWVRQAPGKGLEWVSVISYDGISTHYADSVKGRFTISRDNSKNTLYLQMNSLRAEDTAVYYCARYIGNSLYMDFWGQGTLVTVSS
VL: DIVLTQSPATLSLSPGERATLSCRASQSVSSYLAWYQQKPGQAPRLLIYGTSIRATGVPARFSGSGSGTDFTLTISSLEPEDFATYYCQQEYSSPPTFGQGTKVEIKR
notes: as for B4

Legend:
[1] = molecular target: T1, human CD69 recombinant protein (extracellular region 62-199, homodimer) (human, UniProt Q07108 62-199); experiment: Scatchard plot; solution equilibrium with antigen, free IgG measured by ELISA
T1 construct: Expressed in the E. coli periplasm from cDNA NM_001781; also called human CD69 homodimer protein; extracellular domain of human CD69
T1 sequence: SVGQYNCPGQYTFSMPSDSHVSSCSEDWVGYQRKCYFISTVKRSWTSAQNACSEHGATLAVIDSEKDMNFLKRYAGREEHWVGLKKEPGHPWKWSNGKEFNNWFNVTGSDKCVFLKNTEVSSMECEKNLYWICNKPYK
Protocol: In the present specification, the KD value relating to the binding affinity of the antibody of the present invention to human CD69 is calculated according to the principle described in Immunoassays (OXFORD UNIVERSITY PRESS, 2000) using a scatchard plot method. An antibody is incubated with various concentrations of antigen (extracellular domain of human CD69) at room temperature for 2 hr until equilibrium, and the amount of free antibody present in the incubation solutions is measured by the ELISA method. The binding constant and dissociation constant (KD value) are determined based on the changes in the amount of free antibody in each equilibrated sample. The antibody concentration during equilibration reaction is to be 0.015 μg/ml, and an ELISA plate for the measurement of the amount of free antibody is to be immobilized with the antigen at 1 μg/ml.
(§1) The affinity of the prepared IgG clones for human CD69 was evaluated by scatchard plot. To be specific, it was calculated according to the principle described in Immunoassays (OXFORD UNIVERSITY PRESS, 2000). An antibody was incubated with various concentrations of antigen at room temperature for 2 hr until it reaches equilibrium, and the amount of free antibody present in the incubation liquids was measured by the ELISA method. The binding constant and dissociation constant (KD value) were determined based on the changes in the amount of free antibody in each equilibrate sample. The concentration of the antibody in the equilibration reaction was set to […], and an ELISA plate immobilized with the antigen at 1 μg/ml was used for the measurement of the amount of free antibody.

[2] = molecular target: T1, human CD69 recombinant protein …; experiment: Scatchard plot KD; reference 160-c76 IgG
Protocol: as §1

[3] = molecular target: T2, human CD69 partial peptide #26 (YAGREEHWVGLK) (human); experiment: peptide array (PepSpots), HRP-labelled antibody
T2 construct: Immobilized on a PepSpots peptide array (JPT)
T2 peptide: YAGREEHWVGLK
Description: (§2) To be specific, as shown in the following Table, a peptide array consisting of peptides having the residue number of 12 amino acid residues and an offset of 3 amino acid residues was produced for a sequence covering the extracellular domain of human CD69 (60-199) (PepSpots, manufactured by JPT). The peptide array and the anti-human CD69 antibody were reacted according to the manual of JPT. Anti-human CD69 antibodies labeled with HRP (Peroxidase Labeling Kit-NH2, manufactured by Dojindo) were used.

[4] = molecular target: T3, human CD69 partial peptide #25 (LKRYAGREEHWV) (human); experiment: peptide array (PepSpots), HRP-labelled antibody
T3 construct: Immobilized on a PepSpots peptide array (JPT)
T3 peptide: LKRYAGREEHWV
Description: as §2

[5] = molecular target: T4, human CD69 partial peptide #24 (MNFLKRYAGREE) (human); experiment: peptide array (PepSpots), HRP-labelled antibody
T4 construct: Immobilized on a PepSpots peptide array (JPT)
T4 peptide: MNFLKRYAGREE
Description: as §2

Binder	Kd [1] [nM]	fold increase of affinity against 160-c76 [2] [fold]	binding result [3]	binding result [4]	binding result [5]
B1	1.13	9	–	–	–
B2	27.8	–	–	–	–
B3	2.83	≥ 9	–	–	–
B4	47.6	–	binds	–	–
B5	7.58	–	binds	binds	binds
